Experimental data: PMC10094569

Target: human IgG1 Fc, from HEK-293T cells (human)
Test: SEC; each protein alone on Superdex 200 in PBS; molecular weights from the filtration patterns

stoichiometry N: 2
Substance: human IgG1 Fc, from HEK-293T cells (domain or fragment)
